T1: GST-TβRI intracellular domain fusion protein
T1 chain: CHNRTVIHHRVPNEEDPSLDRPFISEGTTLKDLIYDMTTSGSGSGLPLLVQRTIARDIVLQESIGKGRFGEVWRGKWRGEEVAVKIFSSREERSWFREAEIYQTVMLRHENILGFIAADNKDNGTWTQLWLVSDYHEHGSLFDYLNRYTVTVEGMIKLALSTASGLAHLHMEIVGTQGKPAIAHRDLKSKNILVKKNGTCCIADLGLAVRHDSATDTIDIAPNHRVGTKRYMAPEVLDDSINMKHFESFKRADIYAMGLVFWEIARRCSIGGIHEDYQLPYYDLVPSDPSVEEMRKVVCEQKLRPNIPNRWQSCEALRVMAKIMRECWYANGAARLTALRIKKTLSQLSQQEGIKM

T2: type I receptor of transforming growth factor beta (TβRI), endogenous, full length
T2 chain: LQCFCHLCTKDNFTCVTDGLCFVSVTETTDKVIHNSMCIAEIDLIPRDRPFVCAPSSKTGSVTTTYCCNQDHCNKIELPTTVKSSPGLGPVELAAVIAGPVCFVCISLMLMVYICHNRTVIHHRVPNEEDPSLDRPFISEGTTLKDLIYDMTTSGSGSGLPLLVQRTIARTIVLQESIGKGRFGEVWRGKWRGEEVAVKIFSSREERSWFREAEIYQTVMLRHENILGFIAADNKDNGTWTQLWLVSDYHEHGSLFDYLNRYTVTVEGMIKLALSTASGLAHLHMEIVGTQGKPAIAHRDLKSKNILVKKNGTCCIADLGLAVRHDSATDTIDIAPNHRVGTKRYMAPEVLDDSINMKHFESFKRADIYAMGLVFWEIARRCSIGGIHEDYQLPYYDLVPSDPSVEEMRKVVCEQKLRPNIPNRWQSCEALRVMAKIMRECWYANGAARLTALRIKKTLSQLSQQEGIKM


Tests used:
[1] = biological target: T1, GST-TβRI intracellular domain fusion …
[2] = biological target: T2, type I receptor of transforming growth …

Protein | polyubiquitination of TβRI in an in vitro ubiquitination assay [1] | Lys63-linked polyubiquitination of TβRI and formation of the TβRI ICD after TRAF6 siRNA [2]
recombinant glutathione-S-transferase-tagged TRAF6 (GST-TRAF6) fusion protein (protein) MSLLNCENSCGSSQSESDCCVAMASSCSAVTKDDSVGGTASTGNLSSSFMEEIQGYDVEFDPPLESKYECPICLMALREAVQTPCGHRFCKACIIKSIRDAGHKCPVDNEILLENQLFPDNFAKREILSLMVKCPNEGCLHKMELRHLEDHQAHCEFALMDCPQCQRPFQKFHINIHILKDCPRRQVSCDNCAASMAFEDKEIHDQNCPLANVICEYCNTILIREQMPNHYDLDCPTAPIPCTFSTFGCHEKMQRNHLARHLQENTQSHMRMLAQAVHSLSVIPDSGYISEVRNFQETIHQLEGRLVRQDHQIRELTAKMETQSMYVSELKRTIRTLEDKVAEIEAQQCNGIYIWKIGNFGMHLKCQEEEKPVVIHSPGFYTGKPGYKLCMRLHLQLPTAQRCANYISLFVHTMQGEYDSHLPWPFQGTIRLTILDQSEAPVRQNHEEIMDAKPELLAFQRPTIPRNPKGFGYVTFMHLEALRQRTFIKDDTLLVRCEVSTRFDMGSLRREGFQPRSTDAGV | TRAF6 was shown to induce the polyubiquitination of TβRI in an in vitro ubiquitination assay | 
tumor necrosis factor receptor-associated factor 6 (TRAF6), endogenous (protein) MSLLNCENSCGSSQSESDCCVAMASSCSAVTKDDSVGGTASTGNLSSSFMEEIQGYDVEFDPPLESKYECPICLMALREAVQTPCGHRFCKACIIKSIRDAGHKCPVDNEILLENQLFPDNFAKREILSLMVKCPNEGCLHKMELRHLEDHQAHCEFALMDCPQCQRPFQKFHINIHILKDCPRRQVSCDNCAASMAFEDKEIHDQNCPLANVICEYCNTILIREQMPNHYDLDCPTAPIPCTFSTFGCHEKMQRNHLARHLQENTQSHMRMLAQAVHSLSVIPDSGYISEVRNFQETIHQLEGRLVRQDHQIRELTAKMETQSMYVSELKRTIRTLEDKVAEIEAQQCNGIYIWKIGNFGMHLKCQEEEKPVVIHSPGFYTGKPGYKLCMRLHLQLPTAQRCANYISLFVHTMQGEYDSHLPWPFQGTIRLTILDQSEAPVRQNHEEIMDAKPELLAFQRPTIPRNPKGFGYVTFMHLEALRQRTFIKDDTLLVRCEVSTRFDMGSLRREGFQPRSTDAGV |  | a knock-down of endogenous TRAF6 in PC-3U cells with an anti-TRAF6 siRNA also resulted in loss of both Lys63-linked polyubiquitination in TβRI and the formation of the TβRI ICD in response to TGFβ stimulation

Reference: US20140140998
